Assays:
MS2 coat protein [1] = experiment: apparent KD of MS2 coat protein; designed switch direction (-1 OFF switch, 1 ON switch): 1; higher = weaker reporter binding; settings: Eterna round: R98
Description: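 RNA-MaP: designed FMN/MS2 RNA switches (84 nt design region) are transcribed on-chip within common flanks and titrated with SNAP-549-labelled MS2 coat protein (about 1-3000 nM) in 100 mM Tris pH 7.5, 80 mM KCl, 4 mM MgCl2, without or with 200 uM FMN. Median apparent KD per design; activation ratio = KD,OFF / KD,ON.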

MS2 coat protein [2] = experiment: apparent KD of MS2 coat protein, switch ON state; designed switch direction (-1 OFF switch, 1 ON switch): 1; higher = weaker reporter binding; settings: FMN input: 0 or 200 uM; Eterna round: R93 (includes R88 designs)
Outline: (§1)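 Apparent KD per design is the median of normalised cluster binding-curve fits. Designed RNA switches transcribed on-chip from Illumina sequencing clusters were titrated with SNAP-549-labelled MS2 coat protein in twofold steps from 0.7 or 1.5 nM to 3 µM, with 0.8–1.5 h down to 10–20 min per step. Buffer: 100 mM Tris-HCl pH 7.5, 80 mM KCl, 4 mM MgCl2, without or with constant ligand.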

MS2 coat protein [3] = experiment: apparent KD of MS2 coat protein, switch OFF state (with FMN for OFF switches, without FMN for ON switches); designed switch direction (-1 OFF switch, 1 ON switch): 1; higher = weaker reporter binding; settings: FMN input: 0 or 200 uM; Eterna round: R93 (includes R88 designs)
Outline: as §1

Sequence	apparent KD of MS2 coat protein (MS2 coat protein [1]; input ligand: FMN 200 uM) [nM]	apparent KD of MS2 coat protein (MS2 coat protein [1]; input ligand: none) [nM]	apparent KD of MS2 coat protein (MS2 coat protein [2]) [nM]	apparent KD of MS2 coat protein (MS2 coat protein [3]) [nM]
GGCCGGCAGCUAGGAUAUGGGCGGUCACAUGAGGAUCACCCAUGUCAACAUCAAAACCAGAUUAACCAGAAGGAGCUGCGAGUU [Arza]	1230	27.6		
GCUGUCGCAUGAGGAUAUGGUCUGCUUUGCAGACCAGAAGGCAUGUCGAUAGACAUGAGGAUCACCCAUGUAGUAAAGACAGCA [Mat - Same State NG 1 - JL Mod - D49]	57.1	306		
GCCAUCGCAUGAGGAUAUGGCACCGUUUCGGUGCCAGAAGGCAUGUCAUAAGACAUGAGGAUCACCCAUGUAAAUAAGAUGGCA [JanderMod 3 - Jieux - Same State NG 1]	47.9	715		
GACCGUCCCACAGGAUAUAGAAGGGCGUCCGUUCUAGAAGGGUGAUCAGGACCAAAAGGUCACAUGAGGAUCACCCAUGUAGGU [Usorti]	43.7	36.6		
UAUAUAUAAUAUAUUAACAUGAGGAUCACCCAUGUCGCUAGACAGGAUAUAUUUAAUAUUAUUAAGUAGAAGGGUCAUAUAAUU [LRO007_SS NG 3]	77.4	78.6		
UUUGGGAGCACAGGAUAUGGCGCCUCGGAGGCGCCAGAAGGGUGAUUCUGUUGGUGGCCACAUGAGGAUCACCCAUGUGCCUCC [Rienorarve]	19.2	15.9		
AUAAUAACUUGAGGAUAUGCUCAGGAAUACUGAGCAGAAGGCAGGGAAACCUGAGGAUCACCCAGGUAAAUAAUAAUAAUAAUA [Same State NG1 - A3C, U17G Submission 1B]	19.3	24.5		
UCGUGUUUAACAGGAUAUCCUCAACGACACAUGAGGAUCACCCAUGUUCGGAGCCAAAUGGCUUAGGAGAAGGGUUAGAAACAA [Isceenvere]	75.8	701		
CUGGACAUAGUAUAGGAUAUAUGAAUAGUUACAUGAGGAUCACCCAUGUGCAUUUAUAUGCGAACAUAGAAGGGUGGUAGUUAAG [Mat - Same state - Malcolm Mod - D141]			88.4	48.4
AGAAAUAAAACACAGGAUAUGAAAAAGAAAACAUGAGGAUCACCCAUGUAAAAGAAAAAUAAAAAUCAGAAGGGUGAAAAUAAAG [Put G segment last in JL design (80%)]			59	205
UAAAAACAUGAGGAUCACCCAUGUAAGAUAAACACAGGAUAUGCGAAAAGAAAGAAAGAAGCAGAAGGGUGAAAAU [Mat - Same State 1 - Tesla mod - 43]			15.9	41.6
AAGAAAGAAACAUAGGAUAUCAAGAAUAUAACAUGAGGAUCACCCAUGUAAAUACGAAAGUAUAAUGAGAAGGAUGGAUGAUCUUC [Mat - Mod of Meechl]			24.3	34.5
AAGAAACAUGAGGAUCACCCAUGUAAACUCGAGAGAGGAUAUGGUACAUGGAAGAUCCAACUAGAAGGCUCUGGAG			38.6	17.6
GUAUAUAUAAGACAGGAUAUCCGAAAGUAAACAUGAGGAUCACCCAUGUAAAGAAAGAAACUCAUGGAGAAGGGUCAAUAUAUAC [Mat - Same State 2 - Tesla mod - D83]			22.2	66.7
GAAAAACAUGAGGAUCACCCAUGUAGAAAUAUGGGAGGAUAUACAAACUCGAAAGUCAAAGUAGAAGGCCUAAAAG [Garnet 29]			107	224
AGAAAACAUGAGGAUCACCCAUGUAGAAAUAUGGGAGGAUAUACAAGGACGAAAGUCAAGGUAGAAGGCCUAAAGA [Mat - Same State 1 - Meechl mod - D127]			22.8	88.4

Sequence	apparent KD of MS2 coat protein (MS2 coat protein [1]; input ligand: FMN 200 uM) [nM]	apparent KD of MS2 coat protein (MS2 coat protein [1]; input ligand: none) [nM]	apparent KD of MS2 coat protein (MS2 coat protein [2]) [nM]	apparent KD of MS2 coat protein (MS2 coat protein [3]) [nM]
AAAAAACAUGAGGAUCACCCAUGUGACAACAUGGGAGGAUAUACGAAGACGAGAGUCGAAGUAGAAGGCCUAAAAG [Garnet 78]			117	65.3
UUAAGCCACGGGCAGGAUAUGUAUUAAAAUACAUGAGGAUCACCCAUGUGCAGGUGUAACACCUGACAGAAGGGCCAAUCGCGGC [Soondi]			21.5	241
AAACCACAUGAGGAUCACCCAUGUAAAAAAUAUGGAGGAUAUACUAGAAGAAACAAAAUAGUAGAAGGCCAAAAAA [75%, Ex sub1, 29]			20.3	24.6
GGAACUACAGAUCAGGAUAUGUUUGGGUAAACAUGAGGAUCACCCAUGUGCACCCGAUACACAGGACAGAAGGGAUAACGUGGGA [Maondior]			15.5	20.2
UACACGCGGGCGCAGGAUAUGUCGCUGGUGACAUGAGGAUCACCCAUGUAUACCAUUGCGGUUGAGCAGAAGGGUGAGACGCGUG [Matimare]			15.1	57.5
AAAAAACAUGAGGAUCACCCAUGUCUUCGGACAUGAGGAUAUGUACAGACUUCGGUCUGUACAGAAGGCAUGAAAA [SS1 - 1013]			256	39.5
AAAAGACAUGAGGAUCACCCAUGUAAAAACAUAGGAGGAUAUGUCAUGAAAAAAGACUUGACAGAAGGCCUUUGUC [SS1 - 49]			42	69.8
UAAAUACAUGAGGAUCACCCAUGUCAAGAGUAUUAAGGAUAUGAACCAGGGAACUGGCAGUCAGAAGGUGAGACUC [Ququeddi]			235	65.2
AAAAGACAUGAGGAUCACCCAUGUGAAAACAUACAAGGAUAUGUGUGGAAACCGUACUAUACAGAAGGUGUAUGUC [SS1 - 85]			19.7	28.5
GAGAGACAUGAGGAUCACCCAUGUAGGAUUAUGGGAGGAUAUACAAAGACGAGAGUCAGAGUAGAAGGCCUAGGAU [salish99-ss1-138(!)]			21.2	54.9
AAAUAAAUGACUAAGGAUAUAUCGAAGAAGACAUGAGGAUCACCCAUGUGAUAAUAAAAAGGGUGGUAGAAGGUAGUCAACAAAC [Mod 5 of Pariah 4 by Hyphema in Round 1]			65.4	116
AAAAGACAUGAGGAUCACCCAUGUCCUCGGACAUGAGGAUAUGUACAGACUUCGGUCUGUACAGAAGGCAUGUAAA [SS1 - 1070]			47.3	232
AGACAUAACAGAGAGGAUAUCCAAUAGAAAACAUGAGGAUCACCCAUGUGAAAGAAAAUAAAAUGGGAGAAGGCUCACAUACAGA [Topaz 39]			5.57	23
AAAAAACAUGAGGAUCACCCAUGUAACACUCAUGUAGGAUAUACAAAAAAAAAAAAAAAAGUAGAAGGACAAAAAA [Omei A variation 3]			143	293
AAAAACAUGGUGUAGGAUAUAUUAAUAGUCACAUGAGGAUCACCCAUGUUCAUAUAUAUGAACGAGUAGAAGGACGAUGAAAAAA [Mat - Same state - Malcolm Mod - D108]			244	237
AUGGUGCAGGUACAGGAUAUGUUGCUCGUAACAUGAGGAUCACCCAUGUACCUAUGAGAUUAAAUGCAGAAGGGUGCACACCACG [Quorra]			43.5	1480
